Measured values: doi:10.1101/2025.05.23.654710

How the values were obtained:
Assay in all cases: EMSA
Msn2 DBD = molecular target: T1, Msn2 DBD (Saccharomyces cerevisiae, UniProt P33748)
T1 sequence: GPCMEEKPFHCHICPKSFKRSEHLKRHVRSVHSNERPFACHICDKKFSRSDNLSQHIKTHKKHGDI

Msn2 IDR = molecular target: T2, Msn2 IDR (Saccharomyces cerevisiae, UniProt P33748)
T2 sequence: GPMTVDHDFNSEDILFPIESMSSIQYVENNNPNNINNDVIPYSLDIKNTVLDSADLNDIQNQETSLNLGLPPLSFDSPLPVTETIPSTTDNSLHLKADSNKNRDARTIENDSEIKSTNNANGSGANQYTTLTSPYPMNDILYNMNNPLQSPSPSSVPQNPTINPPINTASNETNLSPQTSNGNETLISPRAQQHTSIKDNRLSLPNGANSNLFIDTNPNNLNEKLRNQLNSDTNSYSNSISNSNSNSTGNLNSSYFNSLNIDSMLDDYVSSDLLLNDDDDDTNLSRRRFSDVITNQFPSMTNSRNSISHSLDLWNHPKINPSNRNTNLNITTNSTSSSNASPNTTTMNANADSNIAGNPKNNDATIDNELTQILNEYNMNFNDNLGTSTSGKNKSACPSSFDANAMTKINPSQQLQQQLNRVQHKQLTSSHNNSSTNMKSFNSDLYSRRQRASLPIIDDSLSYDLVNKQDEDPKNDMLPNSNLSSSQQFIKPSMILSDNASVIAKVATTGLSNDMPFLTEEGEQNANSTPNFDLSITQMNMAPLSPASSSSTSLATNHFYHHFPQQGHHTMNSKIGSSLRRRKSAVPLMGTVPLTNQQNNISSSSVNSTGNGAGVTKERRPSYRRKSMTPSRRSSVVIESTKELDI

Msn2 WT = molecular target: T3, Msn2 WT (Saccharomyces cerevisiae, UniProt P33748)
T3 sequence: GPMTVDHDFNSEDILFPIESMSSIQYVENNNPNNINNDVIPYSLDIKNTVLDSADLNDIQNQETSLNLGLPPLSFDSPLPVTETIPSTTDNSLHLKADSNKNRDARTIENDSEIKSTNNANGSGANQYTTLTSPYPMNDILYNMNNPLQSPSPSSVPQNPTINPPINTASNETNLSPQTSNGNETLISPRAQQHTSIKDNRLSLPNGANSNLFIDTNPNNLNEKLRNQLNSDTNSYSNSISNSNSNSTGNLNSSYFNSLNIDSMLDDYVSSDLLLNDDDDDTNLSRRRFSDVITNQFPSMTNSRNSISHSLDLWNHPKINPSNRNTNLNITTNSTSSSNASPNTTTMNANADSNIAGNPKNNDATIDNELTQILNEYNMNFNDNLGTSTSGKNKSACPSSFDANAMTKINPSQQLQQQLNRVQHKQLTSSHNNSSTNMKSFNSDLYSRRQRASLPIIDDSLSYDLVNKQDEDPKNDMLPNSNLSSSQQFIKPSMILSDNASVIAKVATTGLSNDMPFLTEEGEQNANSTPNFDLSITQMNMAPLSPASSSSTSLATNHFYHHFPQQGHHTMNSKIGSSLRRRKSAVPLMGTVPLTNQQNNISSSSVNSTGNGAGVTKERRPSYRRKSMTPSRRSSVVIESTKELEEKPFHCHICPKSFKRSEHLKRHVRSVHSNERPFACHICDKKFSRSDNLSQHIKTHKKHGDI

Measured: binding result

B1: 51 bp DNA with motif (dsDNA)
DNA 1: CGAAATTATATGGATGAGTAGGTGGGGAAGGAAGTATGTGTAGGTGGCAGG
DNA 2: CCTGCCACCTACACATACTTCCTTCCCCACCTACTCATCCATATAATTTCG
binds: Msn2 DBD | Msn2 IDR | Msn2 WT
